Reference: patent US7785631B2, “Solid dose delivery vehicle and methods of making same” (Quadrant Drug Delivery Limited, priority 1994, dated 2010)

Key:
Type in all cases: physicochemical
[1] = Alkaline phosphatase activity after drying and acetone exposure; settings: dried with 50% trehalose versus dried without trehalose; with bovine serum albumin; FIG. 6B
Protocol: (§1) A 0.1 mg/ml horseradish peroxidase solution or a 1 mg/ml alkaline phosphatase/4 mg/ml bovine serum albumin solution was dried in an FTS Systems freeze drier with or without 50% trehalose. The drier was used as a vacuum drier and the mixtures dried without freezing. Four times the volume of solvent was added and the solution was allowed to evaporate to dryness. The contents were redissolved in 5 milliliters of water, and enzyme activity was assessed, in serial dilution, by commercial ‘kit’ reagents.

[2] = Storage of phycoerythrin dried in trehalose at 100° C.; settings: stored at 100° C. for one month
Protocol: A 400 μg/ml phycoerythrin solution was freeze-dried in the FTS drier with or without 20% trehalose.

[3] = Exposure of dried phycoerythrin powder to organic solvents, fluorescence; settings: freeze-dried powder
Protocol: A 400 μg/ml phycoerythrin solution was freeze-dried in a Labconco freeze-drier with or without 20% trehalose. The dried protein powder was exposed to a number of organic solvents for 72 hrs.

[4] = Horseradish peroxidase activity after drying and acetone exposure; settings: dried with 50% trehalose versus dried without trehalose; FIG. 6A
Protocol: as §1

alkaline phosphatase
resistance of enzyme activity to acetone [1]: more resistant to acetone

phycoerythrin
loss of functional activity on storage [2]: no detectable loss of functional activity | fluorescence after solvent exposure ([3]; acetone, 72 hrs): remained fluorescent | fluorescence after solvent exposure ([3]; acetonitrile, 72 hrs): remained fluorescent | fluorescence after solvent exposure ([3]; chloroform, 72 hrs): remained fluorescent | fluorescence after solvent exposure ([3]; dimethylsulfoxide (powder solubilized)): remained fluorescent | fluorescence after solvent exposure ([3]; methanol, 72 hrs): remained fluorescent | time remained fluorescent ([3]; pyridine): 24 to 48 h | fluorescence after solvent exposure ([3]; pyridine, by 72 hrs): lost fluorescence

horseradish peroxidase
resistance of enzyme activity to acetone [4]: more resistant to acetone
